Measurements reported in the RNAGym collection of RNA variant scans (doi:10.7554/elife.90254).

B1: LINE1-full (parent)
chain: UACGUAGGUGGUUUUCCCCUGAUAGUGCUAAGGGGGCCUGGAAGUUUGGACUGGGCAGAGCUCAACACAGCGUGGCAAAGUGGCUGUGGCUAGACUGCCUCUCUGGAUUCCUCGUCACUCAGCAGGGCAUCUCUGAGAGAAAUGCC

Variants of: B1
Assay: self-cleavage, relative activity (ratio to wild type); higher = more cleavage; in vitro, sequencing; the parent is a self-cleaving ribozyme

Row | Variant | self-cleavage
1 | C37A A94U | 0.23
2 | U5C A31U | 0.78
3 | U62C C90U | 0.05
4 | U9A C111G | 1.11
5 | C19U U104C | 0.65
6 | U26C G97A | 0.07
7 | A42U U81A | 1.39
8 | A50G G88A | 0.06
9 | G4C A141G | 0.5
10 | C99U A138G | 1.14
11 | A64G A69G | 0.07
12 | U9C A43U | 0.77
13 | A121U A136G | 1.47
14 | A121U A136U | 1.07
15 | G25A A124G | 0.63
16 | C120A G122U | 2.31
17 | U20A G127A | 1.1
18 | A31G A124G | 1.09
19 | U45C C113U | 1.15
20 | A59U U81A | 1.53
21 | A30U A129G | 0.58
22 | C37U A43G | 1.32
23 | G21A A50C | 0.9
24 | G7A A129G | 1.85

Row | Variant | self-cleavage
25 | G35A A129U | 1.62
26 | G114A C116U | 0.76
27 | G53A U85C | 0.2
28 | G48A U73A | 1.36
29 | U5C U108G | 1.88
30 | U9C A79C | 1.2
31 | U14G A50U | 1.14
32 | A65G G144A | 0.1
33 | U102A U134A | 1.06
34 | A107G U134A | 1.45
35 | U29A A30G | 0.86
36 | G75C U134C | 0.58
37 | A107G C131U | 1.83
38 | U109A G122A | 1.63
39 | U73A A136G | 1.61
40 | C51A C111U | 1.07
41 | U87C U119C | 0.24
42 | U39C A121C | 1.37
43 | A78G A138G | 1.69
44 | G55U U96C | 0.08
45 | A6U | 0.99
46 | G105A A117U | 1.74
47 | U15A A30U | 0.85
48 | G105A U115C | 1.54

Row | Variant | self-cleavage
49 | A22G G54U | 0.23
50 | C123U A141G | 1.24
51 | U104C U109C | 1.39
52 | C17U A79U | 1.1
53 | U104C A136G | 1.62
54 | A67U A78G | 0.08
55 | G34A A42G | 0.35
56 | U12C C131U | 1.29
57 | U13C A141G | 1.18
58 | U13C A69G | 0.5
59 | A2G A136U | 0.77
60 | G60A A141G | 0.02
61 | G21A U104A | 1.27
62 | A30G A67G | 0.51
63 | G93A A141G | 0.04
64 | U62A A129G | 0.06
65 | C18A A138U | 1.66
66 | G34A A142G | 1.45
67 | U12G A140G | 0.91
68 | U102C A117U | 1.07
69 | A69U U81A | 0.01
70 | A24C U134G | 1.02
71 | A24U A79G | 0.97
72 | U29A G126A | 0.75

Row | Variant | self-cleavage
73 | U5C G126A | 1.36
74 | G25A A142U | 0.93
75 | C90U U108G | 0.09
76 | A30U C95A | 0.03
77 | U12C G135U | 1.57
78 | A57G A138C | 1.13
79 | G86A U119A | 0.16
80 | A2U A79U | 1.37
81 | U85C C146U | 0.27
82 | U12C A129U | 1.53
83 | A50U G55A | 0.08
84 | U104A C146U | 1.35
85 | C37A U100A | 0.93
86 | A64G U100C | 0.29
87 | A50G C118U | 0.71
88 | G48A U112C | 1.45
89 | G34A A141G | 1.41
90 | A94G A140G | 0.26
91 | G32U U62C | 0.06
92 | A78C U109C | 2.32
93 | U15A A140G | 1.11
94 | U15A A140U | 0.61
95 | A59U C71U | 0.64
96 | A64G A67U | 0.11

Row | Variant | self-cleavage
97 | U52C U134A | 1.07
98 | U13A A94G | 0.19
99 | A78C U96C | 0.29
100 | C17U A140U | 1.11
101 | C18U U45C | 0.57
102 | G32C U45C | 1
103 | U1C G125A | 1.34
104 | U46C A77G | 2.46
105 | C18U A65G | 0.07
106 | U100C U109A | 1.77
107 | U1A | 1.17
108 | U9C U85A | 0.17
109 | A92U U130A | 0.67
110 | A94G A121C | 0.57
111 | U39A U104C | 1.57
112 | A124C A136G | 1.15
113 | G70C C90A | 0.02
114 | U26C G35U | 1.56
115 | U81C U100C | 1.29
116 | G72U A121U | 1.08
117 | G21U U115C | 2.18
118 | U15C U46G | 1.15
119 | G41A U112C | 1.67
120 | U26A U109C | 0.95

Row | Variant | self-cleavage
121 | U100C U134A | 1.83
122 | U1C A121G | 0.79
123 | C3U G60U | 0.07
124 | A92G C118U | 0.07
125 | A65G G105A | 0.01
126 | A2C U14A | 1.16
127 | A30U U85C | 0.1
128 | C120U U134C | 1.27
129 | U9C A129G | 1.66
130 | A57U U91C | 0.04
131 | C99U A124G | 0.32
132 | C19A A42G | 0.33
133 | C101A A138G | 1.36
134 | U115C U134A | 0.9
135 | G139A | 0.89
136 | A117U A121U | 1.57
137 | U119C G122C | 2
138 | A50U U134C | 0.98
139 | A92G C128U | 0.03
140 | A43C U100C | 1.99
141 | U12A A22G | 1.14
142 | G21A U91C | 0.35
143 | G40A C131U | 0.76
144 | A42G U47C | 1.54

Row | Variant | self-cleavage
145 | U13C C28U | 0.64
146 | U12C G48A | 0.97
147 | U23A U26C | 0.99
148 | U5C G144A | 1.39
149 | A31U U143A | 0.78
150 | A6U U52A | 1
151 | U46A U130C | 1.88
152 | A31G U45A | 0.85
153 | A50G A124U | 0.79
154 | U73C U91A | 0.57
155 | U62G A136G | 0
156 | A67G C103U | 0.25
157 | A22G U62C | 0.09
158 | A31U U115A | 1.08
159 | U15C A24U | 1.08
160 | G35A U134C | 0.92
161 | A43U G44A | 1.61
162 | G53U U130C | 1.5
163 | U26C U81C | 1.93
164 | A77C U115C | 0.6
165 | A6G U81A | 1.47
166 | G10A U52A | 0.97
167 | A31U U47A | 0.77
